From patent US20230250142A1 (GlaxoSmithKline, published 2023)
Where a chain is given by its changes, count along the chain named. Names and notes keep the numbering of the source.

Columns and labels:
[1] = biological target: T1, GalacTag6_GBSFerritinDK-PW-092+N-terminal helix; assay: 1:1 mix with the nanoparticle, room temperature ~16 h, SDS-PAGE and HPLC-SEC (FIG. 6)
T1 construct: Self-assembled ferritin nanoparticle displaying GalacTag6; also called GalacTag6_GBSFerritinDK-PW-092+ helix; GalacTag6 + GBS ferritin NP subunit from DK-092-PW w/N-terminal helix
T1 chain: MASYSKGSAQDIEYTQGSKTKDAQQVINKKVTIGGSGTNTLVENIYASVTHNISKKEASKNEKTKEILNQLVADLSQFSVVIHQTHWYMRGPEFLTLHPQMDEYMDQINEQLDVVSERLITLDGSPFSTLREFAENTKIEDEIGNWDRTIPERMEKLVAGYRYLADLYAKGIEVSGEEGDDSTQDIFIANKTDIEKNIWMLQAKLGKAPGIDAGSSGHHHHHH

[2] = biological target: T2, GalacTag6_GBSFerritinDK-PW-092; assay: 1:1 mix with the nanoparticle, room temperature, SDS-PAGE and HPLC-SEC (FIGS. 5A, 5B)
T2 construct: also called GalacTag6 + GBS ferritin NP subunit from DK-092-PW
T2 chain: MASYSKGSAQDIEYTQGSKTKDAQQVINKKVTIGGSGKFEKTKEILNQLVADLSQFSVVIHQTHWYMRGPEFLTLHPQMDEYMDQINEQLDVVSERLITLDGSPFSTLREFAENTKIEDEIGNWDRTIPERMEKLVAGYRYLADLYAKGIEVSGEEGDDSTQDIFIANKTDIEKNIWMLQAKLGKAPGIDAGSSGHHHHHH

[3] = biological target: T3, GalacTag7_fHbp (Neisseria meningitidis serogroup B / …, UniProt E6MV22 32-274); assay: mixed in vitro at room temperature ~16 h, SDS-PAGE
T3 construct: Fusion of a GBS BP-2a tag peptide with N. meningitidis fHbp variant 1.1
T3 sequence: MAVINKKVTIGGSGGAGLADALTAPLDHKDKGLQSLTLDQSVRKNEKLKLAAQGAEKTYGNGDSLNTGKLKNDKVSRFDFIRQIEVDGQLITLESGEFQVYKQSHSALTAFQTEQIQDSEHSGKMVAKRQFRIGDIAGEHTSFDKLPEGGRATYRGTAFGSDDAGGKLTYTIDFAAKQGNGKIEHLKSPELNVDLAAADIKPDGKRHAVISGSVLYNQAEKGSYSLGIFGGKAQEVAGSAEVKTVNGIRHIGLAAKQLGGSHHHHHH
Description: (§1) Each GalacDock/GalacTag pair was mixed in vitro at a 1:1 molar ratio at room temperature for approximately 16 hours, and samples were then subjected to SDS-PAGE electrophoresis.

[4] = biological target: T4, GalacTag6_fHbp; assay: 1:1 molar mix, room temperature ~16 h, SDS-PAGE
T4 construct: Fusion of a GBS BP-2a tag peptide with N. meningitidis fHbp variant 1.1; also called GalacTag6_ffibp; wt GalacTag
T4 chain: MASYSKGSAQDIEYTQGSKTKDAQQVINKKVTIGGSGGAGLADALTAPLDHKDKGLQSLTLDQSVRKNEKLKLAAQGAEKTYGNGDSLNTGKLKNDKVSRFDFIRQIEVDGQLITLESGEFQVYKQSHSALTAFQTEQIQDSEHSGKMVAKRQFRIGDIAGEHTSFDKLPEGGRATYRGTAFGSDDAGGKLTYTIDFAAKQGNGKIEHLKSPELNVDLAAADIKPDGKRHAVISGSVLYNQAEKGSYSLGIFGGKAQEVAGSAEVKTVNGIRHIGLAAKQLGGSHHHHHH
Description: as §1

[5] = biological target: T5, GalacTag6_fHbp (N636A); assay: mixed in vitro at room temperature ~16 h, SDS-PAGE (FIG. 3A)
T5 construct: also called variant GalacTag6_fHbp
T5 chain: T4 chain with N28A
Description: (§2) Using these variant GalacDock6 and GalacTag6_fHbp polypeptides, pairs as shown in Table 3 were mixed in vitro at a 1:1 molar ratio at room temperature for approximately 16 hours, and samples were then subjected to SDS-PAGE electrophoresis.

[6] = biological target: T6, GalacTag6_GBSFerritinLMG14747; assay: SDS-PAGE and HPLC-SEC (FIG. 4)
T6 construct: Self-assembled ferritin nanoparticle displaying GalacTag6; also called GalacTag6 + Ferritin NP Subunit: LMG_14747
T6 chain: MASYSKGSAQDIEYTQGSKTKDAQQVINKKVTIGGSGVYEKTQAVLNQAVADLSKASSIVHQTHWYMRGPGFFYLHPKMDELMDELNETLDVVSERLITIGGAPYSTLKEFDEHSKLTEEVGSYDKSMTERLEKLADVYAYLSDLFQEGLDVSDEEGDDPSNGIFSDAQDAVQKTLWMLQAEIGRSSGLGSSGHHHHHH

[7] = biological target: T4, GalacTag6_fHbp; assay: mixed in vitro at room temperature ~16 h, SDS-PAGE (FIG. 3A)
Description: as §2

[8] = biological target: T7, GalacTag5_fHbp (Neisseria meningitidis serogroup B / …, UniProt E6MV22 32-274); assay: mixed in vitro at room temperature ~16 h, SDS-PAGE
T7 construct: Fusion of a GBS BP1 tag peptide with N. meningitidis fHbp variant 1.1
T7 sequence: T3 sequence with V3D, I4T, N5I, K7N, V8N, T9K, I10R
Description: as §1

B1: GalacDock6 with MHHHHHHS leader (designed binder)
chain: MHHHHHHSNTETKPQVDKNFADKELDYANNKKDKGTVSASVGDVKKYHVGTKILKGSDYKKLIWTDSMTKGLTFNNDIAVTLDGATLDATNYKLVADDQGFRLVLTDKGLEAVAKAAKTKDVEIKITYSATLNGSAVVEVLETNDVKLDYGNNPTIENEPKEGIPVDKKITVNKTWAVDGNEVNKADETVDAVFTLQVKDGDKWVNVDSAKATAATSFKHTFENLDNAKTYRVIERVSGYAPEYVSFVNGVVTIKNNKDSNEPTPINPSEPKVVTYGRKFVKTNKDGKERLAGATFLVKKDGKYLARKSGVATDAEKAAVDSTKSALDAAVKAYNDLTKEKQEGQDGKSALATVSEKQKAYNDAFVKANYSYEWVEDKNAKNVVKLISNDKGQFEITGLTEGQYSLEETQAPTGYAKLSGDVSFNVN
notes: It forms a covalent isopeptide bond with GalacTag6; also called GalacDoc6; GlacDock6
[1]
  binding result: binds
[2]
  binding result: binds
[3]
  binding result: no binding (tested: 1:1 molar ratio)
[4]
  binding result: binds
[5]
  binding result: no binding (tested: 1:1 molar ratio)
[6]
  binding result: binds

B2: GalacDock6 variant E589A (designed binder)
chain: B1 chain with E408A
[7]
  binding result: no binding (tested: 1:1 molar ratio)

B3: GalacDock6 variant E589Q (designed binder)
chain: B1 chain with E408Q
[7]
  binding result: no binding (tested: 1:1 molar ratio)

B4: GalacDock6 variant K463A (designed binder)
chain: B1 chain with K282A
[7]
  binding result: no binding (tested: 1:1 molar ratio)

B5: GalacDock5 with MHHHHHHS leader (designed binder)
chain: MHHHHHHSNVVTDEPKTDKDVKKLGQDDAGYTIGEEFKWFLKSTIPANLGDYEKFEITDKFADGLTYKSVGKIKIGSKTLNRDEHYTIDEPTVDNQNTLKITFKPEKFKEIAELLKGMTLVKNQDALDKATANTDDAAFLEIPVASTINEKAVLGKAIENTFELQYDHTPDKADNPKPSNPPRKPEVHTGGKRFVKKDSTETQTLGGAEFDLLASDGTAVKWTDALIKANTNKNYIAGEAVTGQPIKLKSHTDGTFEIKGLAYAVDANAEGTAVTYKLKETKAPEGYVIPDKEIEFTVSQTSYNTKPTDITVDSAD
notes: Expressed in E. coli and purified on a HisTrap HP column
[8]
  binding result: no binding (tested: 1:1 molar ratio)

B6: GalacDock7 with MHHHHHHS leader (designed binder)
chain: MHHHHHHSNTETKPQVDKNFADKELDYANNKKDKGTVSASVGDVKKYHVGTKILKGSDYKKLIWTDSMTKGLTFNNDIAVTLDGATLDATNYKLVADDQGFRLVLTDKGLEAVAKAAKTKDVEIKITYSATLNGSAVVEVLETNDVKLDYGNNPTIENEPKEGIPVDKKITVNKTWAVDGNEVNKADETVDAVFTLQVKDGDKWVNVDSAKATAATSFKHTFENLDNAKTYRVIERVSGYAPEYVSFVNGVVTIKNNKDSNEPTPINPSEPKVVTYGRKFVKTNKDGKERLAGATFLVKKDGKYLARKSGVATDAEKAAVDSTKSALDAAVKAYNDLTKEKQEGQDGKSALATVSEKQKAYNDAFVKANYSYEWVEDKNAKNVVKLISNDKGQFEITGLTEGQYSLEETQAPTGYAKLSGDVSFNVNATSYSKGSAQDIEYTQGSKTKDA
[3]
  binding result: no binding (tested: 1:1 molar ratio)
